Key:
human C1q = biological target: T1, human C1q (human, UniProt P02745 23-245; P02746 28-253; P02747 29-245); experiment: ELISA, antibody coated, bound C1q detected with rabbit anti-human C1q
T1 construct: Bought human C1q; also called first component of the classical complement cascade
Method: In short, microtiter ELISA plates (Greiner, Germany) were coated overnight at RT with the test antibodies serially diluted from 10 μg/ml to 0.06 μg/ml in PBS. Plates were emptied and wells were blocked with 200 μl ELISA-diluent per well (0.1 M NaPO₄, 0.1 M NaCl, 0.1% gelatin and 0.05% Tween-20), at RT for 30 minutes. […] After washing the plates (3×) with PBST, wells were incubated with HRP-conjugated swine anti-rabbit IgG-Fc (DAKO, P0300, lot #069) diluted in ELISA diluent (1:2500, 100 μl/well, RT, 1 hour). Thereafter, plates were washed thrice and assays were developed with freshly prepared 1 mg/ml ABTS solution (ABTS: 2,2′-azino-bis[3-ethylbenzthiazoline-6-sulfonic acid]); 2 tablets of 5 mg in 10 ml ABTS buffer, Boehringer Mannheim, Ingelheim, Germany) at RT in the dark for 30 minutes. Absorbance was measured at 405 nm in an ELISA plate reader (Biotek Instruments Inc., Winooski, USA).

[1] = biological target: the molecule itself; experiment: gel filtration on Superdex 200 (eluted at about 70 kD); self-association of half-molecules
Method: Samples (100 μl) were applied to a Superdex 200 HR 10/30 column (Amersham Biosciences, Uppsala, Sweden), which was connected to a HPLC system (ÄKTA explorer) from Amersham Biosciences, Uppsala, Sweden. The column was first equilibrated in PBS. Fractions of 250 μl were collected, in which Bet v 1 specific IgG was measured using the antigen binding assay.
To test the antigen binding of the Bet v 1 specific antibodies, a sample of diluted antibody was incubated overnight at room temperature with 0.75 mg Protein-G sepharose (Amersham Biosciences, Uppsala, Sweden) in 750 μl PBS/AT (PBS supplemented with 0.3% BSA, 0.1% Tween-20, 0.05% NaN3) together with 50 μl diluted ¹²⁵I-labelled Bet v 1 or ¹²⁵I-labelled Fel d 1. […] After washing the Sepharose suspension with PBS-T (PBS supplemented with 0.1% Tween-20), the bound radioactivity was measured. The results were expressed as the amount of radioactivity relative to the amount added.

T1 sequence (P02745 23-245 limits assumed, chain 1 of 3): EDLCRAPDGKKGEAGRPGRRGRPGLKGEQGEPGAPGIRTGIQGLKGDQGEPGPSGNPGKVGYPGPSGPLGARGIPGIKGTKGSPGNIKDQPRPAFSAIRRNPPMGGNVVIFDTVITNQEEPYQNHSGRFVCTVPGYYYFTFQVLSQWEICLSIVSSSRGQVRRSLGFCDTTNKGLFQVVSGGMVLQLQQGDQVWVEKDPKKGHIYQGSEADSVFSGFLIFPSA
T1 sequence (P02746 28-253 limits assumed, chain 2 of 3): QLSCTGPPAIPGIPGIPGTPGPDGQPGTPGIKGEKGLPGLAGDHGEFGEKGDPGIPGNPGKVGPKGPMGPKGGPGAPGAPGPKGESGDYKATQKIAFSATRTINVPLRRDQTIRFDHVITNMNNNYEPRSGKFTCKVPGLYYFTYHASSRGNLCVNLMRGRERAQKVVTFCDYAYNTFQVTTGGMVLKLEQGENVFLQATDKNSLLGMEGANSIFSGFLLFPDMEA
T1 sequence (P02747 29-245 limits assumed, chain 3 of 3): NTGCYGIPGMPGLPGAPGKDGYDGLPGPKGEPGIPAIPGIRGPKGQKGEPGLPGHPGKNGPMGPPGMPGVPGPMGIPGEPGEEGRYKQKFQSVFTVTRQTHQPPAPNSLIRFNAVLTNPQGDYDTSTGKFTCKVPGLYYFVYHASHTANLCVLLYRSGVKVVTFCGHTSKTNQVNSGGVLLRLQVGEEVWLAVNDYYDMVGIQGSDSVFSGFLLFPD

Row | binding result (human C1q) | Binder | binding result [1]
1 | no binding | 7D8-HG (antibody, Half-molecule of one heavy and one light chain; also called HuMab 7D8-HG; hingeless IgG4 anti-CD20) heavy: EVQLVESGGGLVQPDRSLRLSCAASGFTFHDYAMHWVRQAPGKGLEWVSTISWNSGTIGYADSVKGRFTISRDNAKNSLYLQMNSLRAEDTALYYCAKDIQYGNYYYGMDVWGQGTTVTVSSASTKGPSVFPLAPCSRSTSESTAALGCLVKDYFPEPVTVSWNSGALTSGVHTFPAVLQSSGLYSLSSVVTVPSSSLGTKTYTCNVDHKPSNTKVDKRVAPEFLGGPSVFLFPPKPKDTLMISRTPEVTCVVVDVSQEDPEVQFNWYVDGVEVHNAKTKPREEQFNSTYRVVSVLTVLHQDWLNGKEYKCKVSNKGLPSSIEKTISKAKGQPREPQVYTLPPSQEEMTKNQVSLTCLVKGFYPSDIAVEWESNGQPENNYKTTPPVLDSDGSFFLYSRLTVDKSRWQEGNVFSCSVMHEALHNHYTQKSLSLSLGK light: not shown | –
2 | – | Betv1-HG (antibody, V domains shown, Half-molecule of one heavy and one light chain; also called anti-Betv1-HG; hingeless IgG4 anti-Bet v 1) VH: EVQLQQSGAELVKPGASVKLSCTASGFNIKDTYIHWVKQRPEQGLEWVGRIDPATGNTRYDPKFQGKATITADTSSNTAYLQLSSLTSEDTAVYYCASFRPGYALDYWGQGTSVTVSS VL: DIVMTQSHKFMSTSVGDRVSFTCKASQDVFTAVAWYQQKPGQSPKLLIYWASTRRTGVPDRFTGSGSGTDYTLTISSVQAEDLALYYCQQHFSTPPTFGGGTKLEIKR | no binding

Source: US20100255012A1 (Genmab, published 2010)
